Measured values published in patent US20120288510A1 (UNIVERSITY OF MASSACHUSETTS, published 2012).
Where two headings read alike, the source gives them in different places. No end group written: not given here.

Tests used:
Q412A = molecular target: T1, Q412A (not fully specified); experiment: ELISA on coated bacterial fusion protein; two-fold antibody dilutions; goat anti-human AP, PNPP
T1 construct: alanine scanning mutant of E2-G; also called pET32-E2-G-Q412A; not shown: N-terminal thioredoxin partner and vector-encoded stretch of pET32
T1 chain: ALINTNGSWHINHHHHHH

I414A = molecular target: T2, I414A (not fully specified); experiment: as above
T2 construct: alanine scanning mutant of E2-G; also called pET32-E2-G-I414A (printed in the text as pET32-E2-G-1414A); not shown: N-terminal thioredoxin partner and vector-encoded stretch of pET32
T2 chain: QLANTNGSWHINHHHHHH

N415A = molecular target: T3, N415A (not fully specified); experiment: as above
T3 construct: alanine scanning mutant of E2-G; also called pET32-E2-G-N415A; not shown: N-terminal thioredoxin partner and vector-encoded stretch of pET32
T3 chain: QLIATNGSWHINHHHHHH

T416A = molecular target: T4, T416A; experiment: as above
T4 construct: alanine scanning mutant of E2-G; also called pET32-E2-G-T416A; not shown: N-terminal thioredoxin partner and vector-encoded stretch of pET32

N417A = molecular target: T5, N417A; experiment: as above
T5 construct: alanine scanning mutant of E2-G; also called pET32-E2-G-N417A

S419A = molecular target: T6, S419A; experiment: as above
T6 construct: alanine scanning mutant of E2-G; also called pET32-E2-G-S419A

H421A = molecular target: T7, H421A; experiment: as above
T7 construct: alanine scanning mutant of E2-G; also called pET32-E2-G-H421A

I422A = molecular target: T8, I422A; experiment: as above
T8 construct: alanine scanning mutant of E2-G; also called pET32-E2-G-I422A (printed in the text as pET32-E2-G-1422A)

N423A = molecular target: T9, N423A; experiment: as above
T9 construct: alanine scanning mutant of E2-G; also called pET32-E2-G-N423A

[1] = molecular target: T10, E2-G bacterially expressed thioredoxin fusion protein (pET32-E2-G, E2 amino acids 412 to 423) (Hepatitis C virus genotype 1a, not fully specified (N-terminus); also: N-terminal thioredoxin fusion partner); experiment: as above
T10 construct: also called WT; not shown: thioredoxin, N-terminal fusion partner of the pET32 vector; C-terminal myc and 6 histidine tags
T10 chain: QLINTNGSWHIN-{myc tag-His6}

E2-D = experiment: as above
[2] = molecular target: T10, E2-G bacterially expressed thioredoxin …; experiment: as above
[3] = molecular target: T11, E2-G bacterially expressed fusion protein with the E2 412-423 sequence of genotype 2b (Hepatitis C virus genotype 2b, also: vector linker residues not given here); experiment: as above
T11 construct: not shown: thioredoxin, N-terminal fusion partner of the pET32 vector; C-terminal myc and 6 histidine tags
T11 chain: thioredoxin-HLVNSNGSWHIN-{myc tag-His6 tag}

[4] = molecular target: T12, E2-G bacterially expressed fusion protein with the E2 412-423 sequence of genotype 3a (Hepatitis C virus genotype 3a, also: vector linker residues not given here); experiment: as above
T12 construct: not shown: thioredoxin, N-terminal fusion partner of the pET32 vector; C-terminal myc and 6 histidine tags
T12 chain: thioredoxin-QLVNSSGSWHIN-{myc tag-His6 tag}

[5] = molecular target: T13, E2-G bacterially expressed fusion protein with the E2 412-423 sequence of genotype 4a (Hepatitis C virus genotype 4a, also: vector linker residues not given here); experiment: as above
T13 construct: not shown: thioredoxin, N-terminal fusion partner of the pET32 vector; C-terminal myc and 6 histidine tags
T13 chain: thioredoxin-QLINSNGSWHIN-{myc tag-His6 tag}

[6] = molecular target: T14, E2-G bacterially expressed fusion protein with the E2 412-423 sequence of genotype 6g (Hepatitis C virus genotype 6g, not fully specified (N-terminus); also: N-terminal thioredoxin fusion partner); experiment: as above
T14 construct: not shown: thioredoxin, N-terminal fusion partner of the pET32 vector; C-terminal myc and 6 histidine tags
T14 chain: QLIKTNGSWHIN-{myc tag-His6}

[7] = molecular target: T15, E2-G bacterially expressed fusion protein with the E2 412-423 sequence of genotype 6k (Hepatitis C virus genotype 6k, not fully specified (N-terminus); also: N-terminal thioredoxin fusion partner); experiment: as above
T15 construct: not shown: thioredoxin, N-terminal fusion partner of the pET32 vector; C-terminal myc and 6 histidine tags
T15 chain: QLINSNGSWHVN-{myc tag-His6}

[8] = molecular target: T10, E2-G bacterially expressed thioredoxin …; experiment: Biacore SPR; antibody captured on goat anti-human IgG Fc, E2-G flowed over at varying concentrations; BIAevaluation fit

Sequence of E2-D (P27958 436-463, tags left off): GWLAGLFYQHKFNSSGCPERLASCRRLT

B1: human antibody 83-128 (antibody, V domains shown)
VH: QVQLVESGGGVVQPGRSLRLSCTASGFTFNNYGMHWVRQTPGKGLEWLAVIWFDENNKYYADSVRGRFTISRDNSKNTLFLQMNSLKTEDTAMYYCARDISLVRDAFIYFDFWGLGTLVTVSS
VL: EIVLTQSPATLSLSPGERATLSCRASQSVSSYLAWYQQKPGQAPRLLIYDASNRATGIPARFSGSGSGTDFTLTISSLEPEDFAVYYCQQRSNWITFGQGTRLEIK
Q412A
  EC50 (read off the curve): ~0.02 µg/mL
I414A
  EC50 (read off the curve): ~0.03 µg/mL
N415A
  EC50 (read off the curve): ~0.02 µg/mL
T416A
  EC50 (read off the curve): ~0.02 µg/mL
N417A
  EC50 (read off the curve): ~0.02 µg/mL
S419A
  EC50 (read off the curve): ~0.02 µg/mL
H421A
  EC50 (read off the curve): ~0.02 µg/mL
I422A
  EC50 (read off the curve): ~0.02 µg/mL
N423A
  EC50 (read off the curve): ~0.02 µg/mL
[1]
  EC50 (read off the curve): ~0.02 µg/mL
E2-D
  binding result: no binding (tested: 1 µg/ml)
[2]
  EC50 (read off the curve): ~0.006 µg/mL
[3]
  EC50 (read off the curve): ~0.006 µg/mL
[4]
  EC50 (read off the curve): ~0.006 µg/mL
[5]
  EC50 (read off the curve): ~0.006 µg/mL
[6]
  EC50 (read off the curve): ~0.006 µg/mL
[7]
  EC50 (read off the curve): ~0.006 µg/mL
[8]
  Kd: 3.8 nM
  koff: 0.00073 s⁻¹
  kon: 190000 M⁻¹ s⁻¹
